The text below walks through data of publication PMC8867384 (Neuron, 2020).

Assay in all cases: cryo-EM structure
The target in test [1] is native Torpedo nicotinic acetylcholine receptor (Tetronarce californica (formerly Torpedo californica)) (UniProt P02710).
For test [2], the target named is T1, Torpedo nicotinic acetylcholine receptor δ subunit (Tetronarce californica (formerly …, UniProt P02718 22-522, glycosylated (site not given))).
T1 sequence (looked up): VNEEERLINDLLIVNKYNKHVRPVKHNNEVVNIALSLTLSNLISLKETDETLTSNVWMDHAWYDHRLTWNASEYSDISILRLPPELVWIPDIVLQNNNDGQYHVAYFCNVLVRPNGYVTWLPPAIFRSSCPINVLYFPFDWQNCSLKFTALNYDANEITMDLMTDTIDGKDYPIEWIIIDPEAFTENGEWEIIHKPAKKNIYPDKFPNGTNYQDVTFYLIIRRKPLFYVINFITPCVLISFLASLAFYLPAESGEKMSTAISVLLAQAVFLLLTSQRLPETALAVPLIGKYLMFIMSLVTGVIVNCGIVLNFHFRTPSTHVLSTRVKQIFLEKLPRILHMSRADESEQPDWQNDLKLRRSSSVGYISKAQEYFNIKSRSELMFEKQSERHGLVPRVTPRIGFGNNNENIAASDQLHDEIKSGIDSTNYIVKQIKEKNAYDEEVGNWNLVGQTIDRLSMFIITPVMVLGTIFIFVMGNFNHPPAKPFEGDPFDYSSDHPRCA

Test [3] deals with T2, Torpedo nicotinic acetylcholine receptor γ subunit (Tetronarce californica (formerly …, UniProt P02714 18-506)).
T2 sequence (looked up): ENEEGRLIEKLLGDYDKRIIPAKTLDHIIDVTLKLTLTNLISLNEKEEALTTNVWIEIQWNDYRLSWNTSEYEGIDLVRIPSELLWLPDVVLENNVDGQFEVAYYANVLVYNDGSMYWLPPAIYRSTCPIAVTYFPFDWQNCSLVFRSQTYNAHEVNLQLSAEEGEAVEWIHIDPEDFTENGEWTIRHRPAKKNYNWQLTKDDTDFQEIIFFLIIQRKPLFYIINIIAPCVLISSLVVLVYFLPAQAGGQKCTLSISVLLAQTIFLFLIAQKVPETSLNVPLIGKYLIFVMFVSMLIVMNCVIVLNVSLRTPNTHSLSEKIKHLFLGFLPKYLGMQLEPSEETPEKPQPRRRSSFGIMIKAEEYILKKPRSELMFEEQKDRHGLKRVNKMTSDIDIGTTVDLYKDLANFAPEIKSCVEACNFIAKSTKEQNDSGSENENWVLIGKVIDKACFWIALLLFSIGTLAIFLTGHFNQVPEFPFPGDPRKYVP

Test [4] deals with Torpedo nicotinic acetylcholine receptor α subunit (Tetronarce californica (formerly …, UniProt P02710 25-461)).
Torpedo nicotinic acetylcholine receptor α subunit (Tetronarce californica, sequence (P02710 25-461): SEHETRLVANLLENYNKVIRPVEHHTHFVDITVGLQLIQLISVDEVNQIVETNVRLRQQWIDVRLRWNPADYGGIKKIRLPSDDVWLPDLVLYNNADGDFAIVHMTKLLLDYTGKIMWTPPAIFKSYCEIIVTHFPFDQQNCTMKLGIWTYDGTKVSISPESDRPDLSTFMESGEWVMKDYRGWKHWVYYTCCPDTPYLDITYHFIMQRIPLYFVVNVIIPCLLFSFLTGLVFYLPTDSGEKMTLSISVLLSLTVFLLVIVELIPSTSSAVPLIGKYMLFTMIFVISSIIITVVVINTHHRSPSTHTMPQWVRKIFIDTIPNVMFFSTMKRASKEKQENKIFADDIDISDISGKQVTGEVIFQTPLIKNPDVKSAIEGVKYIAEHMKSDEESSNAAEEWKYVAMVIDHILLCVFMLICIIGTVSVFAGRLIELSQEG

native Torpedo nicotinic acetylcholine receptor (Tetronarce californica (formerly Torpedo californica)), sequence (P02710 25-461, chain 1 of 2): as the sequence (P02710 25-461) above
native Torpedo nicotinic acetylcholine receptor (Tetronarce californica (formerly Torpedo californica)), sequence (P02712 25-493, chain 2 of 2, further chain): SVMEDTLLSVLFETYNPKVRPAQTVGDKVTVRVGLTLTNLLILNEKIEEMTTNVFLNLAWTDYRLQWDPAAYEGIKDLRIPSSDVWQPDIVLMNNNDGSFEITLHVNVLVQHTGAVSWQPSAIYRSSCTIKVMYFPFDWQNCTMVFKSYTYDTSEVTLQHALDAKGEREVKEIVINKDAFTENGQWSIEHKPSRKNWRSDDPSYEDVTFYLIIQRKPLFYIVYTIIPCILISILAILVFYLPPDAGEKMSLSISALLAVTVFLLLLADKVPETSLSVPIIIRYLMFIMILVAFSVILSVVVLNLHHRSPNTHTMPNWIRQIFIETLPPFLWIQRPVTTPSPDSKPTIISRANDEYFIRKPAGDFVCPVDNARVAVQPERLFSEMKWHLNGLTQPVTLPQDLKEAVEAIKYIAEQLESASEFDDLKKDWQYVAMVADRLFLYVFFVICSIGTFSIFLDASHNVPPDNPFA

On to “α-bungarotoxin (from UniProt P60615 22-95) (natural protein)”, for which the stoichiometry N – broadly, a count of units in the complex or per binding partner – in test [1] was 2.

B1: α-bungarotoxin (natural protein)
chain: IVCHTTATSPISAVTCPPGENLCYRKMWCDAFCSSRGKVVELGCAATCPSKKPYEEVTCCSTDKCNPHPKQRPG
As for B1, the binding result in test [2], in test [3] and in test [4] was “binds” throughout.
